# Laboratory results: IntAct's records for PubMed 25502805
# Columns and labels:
# hbaz_human HBZ = hbaz_human HBZ (UniProt P02008)
# vps29_human VPS29 = vps29_human VPS29 (UniProt Q9UBQ0)
Substance,effect of a mutation on the interaction (hbaz_human HBZ),effect of a mutation on the interaction (vps29_human VPS29)
"Hemoglobin subunit beta (Homo sapiens), P68871 D100Y",disrupting interaction strength,
"Hemoglobin subunit beta (Homo sapiens), P68871 V127G",disrupting interaction strength,
"Hemoglobin subunit beta (Homo sapiens), P68871 S10C",disrupting interaction strength,
"Hemoglobin subunit beta (Homo sapiens), P68871 E102Q",disrupting interaction strength,
Vacuolar protein sorting-associated protein 35 (Homo sapiens) (from UniProt Q96QK1) D620N,,with no effect
"Hemoglobin subunit beta (Homo sapiens), P68871 N103Y",with no effect,
"Hemoglobin subunit beta (Homo sapiens), P68871 V114E",disrupting interaction strength,
"Hemoglobin subunit beta (Homo sapiens), P68871 F104L",disrupting interaction strength,
"Hemoglobin subunit beta (Homo sapiens), P68871 E122V",disrupting interaction strength,
"Hemoglobin subunit beta (Homo sapiens), P68871 H118Y",disrupting interaction strength,
"Hemoglobin subunit beta (Homo sapiens), P68871 P101A",disrupting interaction strength,
"Hemoglobin subunit beta (Homo sapiens), P68871 F123S",disrupting interaction strength,
"Hemoglobin subunit beta (Homo sapiens), P68871 L115P",disrupting interaction strength,
Vacuolar protein sorting-associated protein 35 (Homo sapiens) (from UniProt Q96QK1) R524W,,with no effect
